Source: paper PMC9276808, “Structural identification of riluzole-binding site on human TRPC5” (Cell Discovery, 2022)

Target: the molecule itself
Assay: cryo-EM structure; purified hTRPC5(1-764) supplemented with riluzole; single particle analysis, global resolution 2.4 Å

B1: truncated functional human TRPC5 (hTRPC5_(1–764)) (domain or fragment, UniProt Q9UL62 1-764, looked up)
chain: MAQLYYKKVNYSPYRDRIPLQIVRAETELSAEEKAFLNAVEKGDYATVKQALQEAEIYYNVNINCMDPLGRSALLIAIENENLEIMELLLNHSVYVGDALLYAIRKEVVGAVELLLSYRRPSGEKQVPTLMMDTQFSEFTPDITPIMLAAHTNNYEIIKLLVQKRVTIPRPHQIRCNCVECVSSSEVDSLRHSRSRLNIYKALASPSLIALSSEDPILTAFRLGWELKELSKVENEFKAEYEELSQQCKLFAKDLLDQARSSRELEIILNHRDDHSEELDPQKYHDLAKLKVAIKYHQKEFVAQPNCQQLLATLWYDGFPGWRRKHWVVKLLTCMTIGFLFPMLSIAYLISPRSNLGLFIKKPFIKFICHTASYLTFLFMLLLASQHIVRTDLHVQGPPPTVVEWMILPWVLGFIWGEIKEMWDGGFTEYIHDWWNLMDFAMNSLYLATISLKIVAYVKYNGSRPREEWEMWHPTLIAEALFAISNILSSLRLISLFTANSHLGPLQISLGRMLLDILKFLFIYCLVLLAFANGLNQLYFYYETRAIDEPNNCKGIRCEKQNNAFSTLFETLQSLFWSVFGLLNLYVTNVKARHEFTEFVGATMFGTYNVISLVVLLNMLIAMMNNSYQLIADHADIEWKFARTKLWMSYFDEGGTLPPPFNIIPSPKSFLYLGNWFNNTFCPKRDPDGRRRRRNLRSFTERNADSLIQNQHYQEVIRNLVKRYVAAMIRNSKTHEGLTEENFKELKQDISSFRYEVLDLLGNR
notes: The sample was supplemented with riluzole, and Ca2+, DAG and lipids are seen in the map; also called transient receptor potential canonical subfamily member 5; source: purified
  stoichiometry N: 4
